In the supplement of paper PMC7877785:
± gives the uncertainty stated by the source.

Assay: self-splicing fitness, log relative to wild type (ln ratio); higher = more splicing; Tetrahymena group I intron in knt gene, E. coli kanamycin selection, DiMSum; sequences stand for … in CUCUCU…GGAGGGAAAAGUUAUCAGGCAUGCACCUGGUAGCUAGUCUUUAAACCAAUAGAUUGCAUCGGUUUAAAAGGCAAGACCGUCAAAUUGCGGGAAAGGGGUCAACAGCCGUUCAGUACCAAGUCUCAGGGGAAACUUUGAGAUGGCCUUGCAAAGGGUAUGGUAAUAAGCUGACGGACAUGGUCCUAACCACGCAGCCAAGUCCUAAGUCAACAGAUCUUCUGUUGAUAUGGAUGCAGUUCACAGACUAAAUGUCGGUCGGGGAAGAUGUAUUCUUCUCAUAAGAUAUAGUCGGACCUCUCCUUAAUGGGAGCUAGCGGAUGAAGUGAUGCAACACUGGAGCCGCUGGGAACUAAUUUGUAUGCGAAAGUAUAUUGAUUAGUUUUGGAGUACUCGUGGUCG
Outline: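 Library with all eight P1ex-region intron nucleotides randomised, intron inside the knt kanamycin-resistance gene on pET-22b(+), in E. coli BL21(DE3). Cells grew overnight at 37°C or 30°C on LB agar with or without 25 μg/mL kanamycin (plus 100 μg/mL carbenicillin, 50 μM IPTG, 0.2% rhamnose), in six replicate transformations. Pooled colonies were amplicon-sequenced on Illumina HiSeq 2500. DiMSum fitness is the error-weighted combination of wild-type-normalised replicate fold changes, kanamycin versus none.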

Sequence | self-splicing fitness (ln) (30 °C) | self-splicing fitness (ln) (37 °C)
CCUCAGCAAUAUUACGUAGG | -2.71 ± 0.18 | -2.38 ± 0.3
CCUCAGCAAUAUUACGUGAG | -0.99 ± 0.057 | -0.881 ± 0.071
CCUCAGCAAUAUUACGUGCA | -4.09 ± 0.37 | -2.32 ± 0.35
CCUCAGCAAUAUUACGUUGC | -3.32 ± 0.28 | -2.52 ± 0.32
CCUCAGCAAUAUUACGUUUA | -4.17 ± 0.2 | -2.57 ± 0.14
CCUGAGCAAUAUUACGACCG | -3.73 ± 0.39 | -2.5 ± 0.37
CCUGAGCAAUAUUACGAGAA | -3.46 ± 0.4 | -1.79 ± 0.29
CCUGAGCAAUAUUACGAGAC | -2.85 ± 0.33 | -0.69 ± 0.33
CCUGAGCAAUAUUACGAUUU | -3.27 ± 0.19 | -2.3 ± 0.16
CCUGAGCAAUAUUACGCACA | -1.53 ± 0.17 | -1.6 ± 0.35
CCUGAGCAAUAUUACGCGAU | -3.71 ± 0.18 | -2.25 ± 0.14
CCUGAGCAAUAUUACGGCCC | -2.54 ± 0.32 | 
CCUGAGCAAUAUUACGGUAA | -3.76 ± 0.37 | -3.55 ± 0.25
CCUGAGCAAUAUUACGUAAC |  | -2.3 ± 0.35
CCUGAGCAAUAUUACGUACC | -0.796 ± 0.25 | -2.27 ± 0.37
CCUGAGCAAUAUUACGUCCU | -4.5 ± 0.39 | 
CCUGAGCAAUAUUACGUGCU | -3.25 ± 0.19 | -2.24 ± 0.2
CCUGAGCAAUAUUACGUUAC | -3.52 ± 0.26 | -3.09 ± 0.36
CCUGAGCAAUAUUACGUUGC | -2.07 ± 0.31 | -2.27 ± 0.43
CCUGAGCAAUAUUACGUUGG | -4.56 ± 0.29 | -2.16 ± 0.16
CCUUAGCAAUAUUACGAAGA | -2.58 ± 0.27 | -3.3 ± 0.26
CCUUAGCAAUAUUACGAAGG | -3.53 ± 0.32 | 
CCUUAGCAAUAUUACGAGCA | -2.64 ± 0.22 | -3.17 ± 0.33

Sequence | self-splicing fitness (ln) (30 °C) | self-splicing fitness (ln) (37 °C)
CCUUAGCAAUAUUACGAGCG | -1.02 ± 0.077 | -0.792 ± 0.095
CCUUAGCAAUAUUACGAUCC | -2.32 ± 0.4 | -2.74 ± 0.49
CCUUAGCAAUAUUACGAUCG | -0.392 ± 0.07 | -0.134 ± 0.1
CCUUAGCAAUAUUACGCAUA | -3.22 ± 0.46 | -2.24 ± 0.37
CCUUAGCAAUAUUACGCCCA | -1.96 ± 0.34 | 
CCUUAGCAAUAUUACGCGGU | -3.78 ± 0.36 | 
CCUUAGCAAUAUUACGCUAG | -3.32 ± 0.29 | -2.04 ± 0.38
CCUUAGCAAUAUUACGCUGG | -1.57 ± 0.18 | -2.43 ± 0.3
CCUUAGCAAUAUUACGGAGC | -3.54 ± 0.34 | -2.4 ± 0.25
CCUUAGCAAUAUUACGGCGG | -2.92 ± 0.17 | -2.05 ± 0.21
CCUUAGCAAUAUUACGGCUC | -3.72 ± 0.21 | -3.45 ± 0.39
CCUUAGCAAUAUUACGGUAG | -4.09 ± 0.28 | -2.1 ± 0.23
CCUUAGCAAUAUUACGGUGC | -3.75 ± 0.19 | -3.01 ± 0.25
CCUUAGCAAUAUUACGGUUG | -2.38 ± 0.1 | -1.48 ± 0.098
CCUUAGCAAUAUUACGUCCC | -1.81 ± 0.5 | 
CCUUAGCAAUAUUACGUCUA |  | -2.65 ± 0.23
CCUUAGCAAUAUUACGUCUU | -3.66 ± 0.16 | -2.61 ± 0.17
CCUUAGCAAUAUUACGUGAA | -4.2 ± 0.24 | -3.37 ± 0.28
CCUUAGCAAUAUUACGUUAA | -3.13 ± 0.27 | -2.71 ± 0.31
CCUUAGCAAUAUUACGUUCG | -3.37 ± 0.29 | -0.857 ± 0.18
CCUUAGCAAUAUUACGUUCU | -4.18 ± 0.46 | -1.5 ± 0.34
CGAAAGCAAUAUUACGACCC | -1.42 ± 0.2 | -0.478 ± 0.23
